B1: LINE1-mini (parent)
chain: GGCAGAGCUCAACACAGCGUGGCAAAGUGGCUGUGGCUAGACUGCC

Variants of: B1
Test: self-cleavage, relative activity (ratio to wild type); higher = more cleavage; in vitro, sequencing; the parent is a self-cleaving ribozyme

For GGCAAAGCUCAACACAGCGUGCCAAAGUGGCUGUGGCUAGACUGCC [G5A G22C], which self-cleavage is on record?
The self-cleavage was 0.13.

Which self-cleavage does the source give for GGCAAAGCUCAACACAGCGUGACAAAGUGGCUGUGGCUAGACUGCC [G5A G22A] here?
The self-cleavage was 0.18.

With GGCAAAGCUCAACACAGCGUGUCAAAGUGGCUGUGGCUAGACUGCC [G5A G22U] as the variant, how does the self-cleavage read?
The self-cleavage was 0.14.

For GGCAACGCUCAACACAGCGUGGCAAAGUGGCUGUGGCUAGACUGCC [G5A A6C], which self-cleavage is on record?
Its self-cleavage is 0.2.

Which self-cleavage does the source give for GGCAAGGCUCAACACAGCGUGGCAAAGUGGCUGUGGCUAGACUGCC [G5A A6G] here?
Its self-cleavage is 0.13.

Which self-cleavage does the source give for GGCAAUGCUCAACACAGCGUGGCAAAGUGGCUGUGGCUAGACUGCC [G5A A6U] here?
Its self-cleavage is 0.12.

Which self-cleavage does the source give for GGCUGAGCUCAACACAGCGUGGCAAAGUGGCAGUGGCUAGACUGCC [A4U U32A] here?
The self-cleavage was 0.06.

With GGCUGAGCUCAACACAGCGUGGCAAAGUGGCGGUGGCUAGACUGCC [A4U U32G] as the variant, how does the self-cleavage read?
The self-cleavage was 0.14.

For GGCUGAGCUCAACACAGCGUGGCAAAGUGGCCGUGGCUAGACUGCC [A4U U32C], which self-cleavage is on record?
The self-cleavage was 0.14.

For GGCAAAGCUCAACACAGCGUGGCAAAGUGGCUGUGGCUAGAAUGCC [G5A C42A], which self-cleavage is on record?
Its self-cleavage is 0.13.

With GGCAAAGCUCAACACAGCGUGGCAAAGUGGCUGUGGCUAGAGUGCC [G5A C42G] as the variant, how does the self-cleavage read?
The self-cleavage was 0.07.

For GGCAAAGCUCAACACAGCGUGGCAAAGUGGCUGUGGCUAGAUUGCC [G5A C42U], which self-cleavage is on record?
Its self-cleavage is 1.53.

With GGCAAAGCUCAACCCAGCGUGGCAAAGUGGCUGUGGCUAGACUGCC [G5A A14C] as the variant, how does the self-cleavage read?
Its self-cleavage is 0.09.

With GGCAAAGCUCAACGCAGCGUGGCAAAGUGGCUGUGGCUAGACUGCC [G5A A14G] as the variant, how does the self-cleavage read?
The self-cleavage was 0.13.

With GGCAAAGCUCAACUCAGCGUGGCAAAGUGGCUGUGGCUAGACUGCC [G5A A14U] as the variant, how does the self-cleavage read?
Its self-cleavage is 0.1.

With GGCAAAGCUCAACACAGCGUGGCAAAGUGCCUGUGGCUAGACUGCC [G5A G30C] as the variant, how does the self-cleavage read?
The self-cleavage was 0.12.

With GGCAAAGCUCAACACAGCGUGGCAAAGUGACUGUGGCUAGACUGCC [G5A G30A] as the variant, how does the self-cleavage read?
Its self-cleavage is 0.22.

For GGCAAAGCUCAACACAGCGUGGCAAAGUGUCUGUGGCUAGACUGCC [G5A G30U], which self-cleavage is on record?
Its self-cleavage is 0.19.

For GGCAAAGCUCAACACAGCGUGGCAAAGUGGCUUUGGCUAGACUGCC [G5A G33U], which self-cleavage is on record?
Its self-cleavage is 0.05.

For GGCAAAGCUCAACACAGCGUGGCAAAGUGGCUCUGGCUAGACUGCC [G5A G33C], which self-cleavage is on record?
The self-cleavage was 0.09.

Which self-cleavage does the source give for GGCAAAGCUCAACACAGCGUGGCAAAGUGGCUAUGGCUAGACUGCC [G5A G33A] here?
The self-cleavage was 0.1.

For GGCAAAGCUCAACACAGCGUGGCAAAGUGGCUGUGGUUAGACUGCC [G5A C37U], which self-cleavage is on record?
Its self-cleavage is 0.13.

For GGCAAAGCUCAACACAGCGUGGCAAAGUGGCUGUGGAUAGACUGCC [G5A C37A], which self-cleavage is on record?
Its self-cleavage is 0.06.

With GGCAAAGCUCAACACAGCGUGGCAAAGUGGCUGUGGGUAGACUGCC [G5A C37G] as the variant, how does the self-cleavage read?
Its self-cleavage is 0.05.

With GGCAAAGCUCAACACAGCGUGGCAAAGUGGCUGUGGCUAGACUGCA [G5A C46A] as the variant, how does the self-cleavage read?
The self-cleavage was 0.11.

Which self-cleavage does the source give for GGCAAAGCUCAACACAGCGUGGCAAAGUGGCUGUGGCUAGACUGCU [G5A C46U] here?
The self-cleavage was 0.12.

With GGCAAAGCUCAACACAGCGUGGCAAAGUGGCUGUGGCUAGACUGCG [G5A C46G] as the variant, how does the self-cleavage read?
Its self-cleavage is 0.16.

Which self-cleavage does the source give for GGCAAAGCUCAACACAGCGUUGCAAAGUGGCUGUGGCUAGACUGCC [G5A G21U] here?
Its self-cleavage is 0.14.

For GGCAAAGCUCAACACAGCGUAGCAAAGUGGCUGUGGCUAGACUGCC [G5A G21A], which self-cleavage is on record?
The self-cleavage was 0.25.

Which self-cleavage does the source give for GGCAAAGCUCAACACAGCGUCGCAAAGUGGCUGUGGCUAGACUGCC [G5A G21C] here?
Its self-cleavage is 0.13.

Which self-cleavage does the source give for GGCAAAGCUCACCACAGCGUGGCAAAGUGGCUGUGGCUAGACUGCC [G5A A12C] here?
The self-cleavage was 0.04.

With GGCAAAGCUCAUCACAGCGUGGCAAAGUGGCUGUGGCUAGACUGCC [G5A A12U] as the variant, how does the self-cleavage read?
The self-cleavage was 0.09.

For GGCAAAGCUCAGCACAGCGUGGCAAAGUGGCUGUGGCUAGACUGCC [G5A A12G], which self-cleavage is on record?
The self-cleavage was 0.08.

For GGCUGAGCUCAACACAGCGUGGCAAAGUGGCUGAGGCUAGACUGCC [A4U U34A], which self-cleavage is on record?
The self-cleavage was 0.08.

With GGCUGAGCUCAACACAGCGUGGCAAAGUGGCUGGGGCUAGACUGCC [A4U U34G] as the variant, how does the self-cleavage read?
The self-cleavage was 0.06.

With GGCUGAGCUCAACACAGCGUGGCAAAGUGGCUGCGGCUAGACUGCC [A4U U34C] as the variant, how does the self-cleavage read?
The self-cleavage was 0.08.

For GGCAAAGCUCAACACAGCGUGGCAAAGUGGCUGUGGCUAGACUGUC [G5A C45U], which self-cleavage is on record?
Its self-cleavage is 0.12.

Which self-cleavage does the source give for GGCAAAGCUCAACACAGCGUGGCAAAGUGGCUGUGGCUAGACUGAC [G5A C45A] here?
Its self-cleavage is 0.22.

With GGCAAAGCUCAACACAGCGUGGCAAAGUGGCUGUGGCUAGACUGGC [G5A C45G] as the variant, how does the self-cleavage read?
The self-cleavage was 0.14.

For GGCAAAGCUCAACACAGCGUGGCAAAGUGGCUGUGGCUUGACUGCC [G5A A39U], which self-cleavage is on record?
Its self-cleavage is 0.1.

With GGCAAAGCUCAACACAGCGUGGCAAAGUGGCUGUGGCUGGACUGCC [G5A A39G] as the variant, how does the self-cleavage read?
Its self-cleavage is 0.08.

For GGCAAAGCUCAACACAGCGUGGCAAAGUGGCUGUGGCUCGACUGCC [G5A A39C], which self-cleavage is on record?
Its self-cleavage is 0.24.

With GGCAAAGCUCAACACAGCGUGGCAAAGUGGCUGUGCCUAGACUGCC [G5A G36C] as the variant, how does the self-cleavage read?
Its self-cleavage is 0.05.

With GGCAAAGCUCAACACAGCGUGGCAAAGUGGCUGUGACUAGACUGCC [G5A G36A] as the variant, how does the self-cleavage read?
Its self-cleavage is 0.28.

With GGCAAAGCUCAACACAGCGUGGCAAAGUGGCUGUGUCUAGACUGCC [G5A G36U] as the variant, how does the self-cleavage read?
Its self-cleavage is 0.14.

For GGCUGAGCUCAACACAGCGUGGCAAAGCGGCUGUGGCUAGACUGCC [A4U U28C], which self-cleavage is on record?
The self-cleavage was 0.32.

Which self-cleavage does the source give for GGCUGAGCUCAACACAGCGUGGCAAAGAGGCUGUGGCUAGACUGCC [A4U U28A] here?
The self-cleavage was 0.19.

With GGCUGAGCUCAACACAGCGUGGCAAAGGGGCUGUGGCUAGACUGCC [A4U U28G] as the variant, how does the self-cleavage read?
The self-cleavage was 0.17.

Which self-cleavage does the source give for GGCAAAGCUCCACACAGCGUGGCAAAGUGGCUGUGGCUAGACUGCC [G5A A11C] here?
The self-cleavage was 0.03.

For GGCAAAGCUCGACACAGCGUGGCAAAGUGGCUGUGGCUAGACUGCC [G5A A11G], which self-cleavage is on record?
Its self-cleavage is 0.03.

For GGCAAAGCUCUACACAGCGUGGCAAAGUGGCUGUGGCUAGACUGCC [G5A A11U], which self-cleavage is on record?
Its self-cleavage is 0.04.

Which self-cleavage does the source give for GGCAAAGCUCAACAAAGCGUGGCAAAGUGGCUGUGGCUAGACUGCC [G5A C15A] here?
Its self-cleavage is 0.1.

For GGCAAAGCUCAACAGAGCGUGGCAAAGUGGCUGUGGCUAGACUGCC [G5A C15G], which self-cleavage is on record?
Its self-cleavage is 0.05.

With GGCAAAGCUCAACAUAGCGUGGCAAAGUGGCUGUGGCUAGACUGCC [G5A C15U] as the variant, how does the self-cleavage read?
The self-cleavage was 0.11.

With GGCAAAGCUCAACACAGCGUGGCAAAGUGGCUGUGGCUAGACUGCC [G5A] as the variant, how does the self-cleavage read?
Its self-cleavage is 0.16.

For GGCAAAGCUCAACACAGCGUGGUAAAGUGGCUGUGGCUAGACUGCC [G5A C23U], which self-cleavage is on record?
Its self-cleavage is 0.14.

— the RNAGym collection of RNA variant scans (doi:10.7554/elife.90254)
